Where two headings read alike, the source gives them in different places.

For assay [1], the target named is T1, Fc-tagged FZD2 CRD (Homo sapiens, UniProt Q14332).
For assay [2], the target named is T2, Fc-tagged FZD4 CRD (Homo sapiens, UniProt Q9ULV1).
T2 construct: Frizzled-4, human, cysteine rich domain (CRD); also called FZD4-Fc; source: bought: R and D Systems
The experiment in a line: SPR; soluble F^P Fab or IgG injected over FZD-Fc immobilised on a GLC sensor by amine coupling; PBS, 0.05% Tween20, 0.5% BSA; 25 °C; 1:1 Langmuir model, global fit. Conditions: both partners purified. In general terms: In SPR one partner is held on a chip, and binding of the other changes the refractive index at the surface.

The target of assay [3] is T1, Fc-tagged FZD2 CRD. The description is as above. As to conditions: both partners purified.
The target in assay [4] is T3, Fc-tagged FZD7 CRD (Homo sapiens, UniProt O75084).
T3 construct: Frizzled-7, human, cysteine rich domain (CRD); also called FZD7-Fc; source: bought: R and D Systems
The assay is described as above. Conditions: both partners purified.

The next assay has as its target T4, Fc-tagged FZD1 CRD (Homo sapiens, UniProt Q9UP38).
T4 construct: Frizzled-1, human, cysteine rich domain (CRD); also called FZD1-Fc; source: bought: R and D Systems
Described as above. As to conditions: both partners purified.

The target of assay [5] is T3, Fc-tagged FZD7 CRD.
For assay [6], the target named is T2, Fc-tagged FZD4 CRD.
Target sequence in this assay (Q9ULV1 40-161): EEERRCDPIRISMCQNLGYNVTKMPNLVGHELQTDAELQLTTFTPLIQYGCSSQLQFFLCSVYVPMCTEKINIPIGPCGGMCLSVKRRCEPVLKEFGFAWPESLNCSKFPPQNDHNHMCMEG

B1: FLAg 2+2 (anti-FZD2 paratope) (antibody, V domains shown)
VH: EVQLVESGGGLVQPGGSLRLSCAASGFNIYYSSIHWVRQAPGKGLEWVASIYPYYGYTYYADSVKGRFTISADTSKNTAYLQMNSLRAEDTAVYYCARYYHYGLDYWGQGTLVTVSS
VL: DIQMTQSPSSLSASVGDRVTITCRASQSVSSAVAWYQQKPGKAPKLLIYSASSLYSGVPSRFSGSRSGTDFTLTISSLQPEDFATYYCQQSYWHSYLITFGQGTKVEIK
In the case of B1, the binding result with Fc-tagged FZD2 CRD [1] is on record as “binds”.

B2: F^P Fab (Fab, V domains shown)
VH: EVQLVESGGGLVQPGGSLRLSCAASGFNIGSSSIHWVRQAPGKGLEWVASIYSAFASTSYADSVKGRFTISADTSKNTAYLQMNSLRAEDTAVYYCARYHFPFGFALDYWGQGTLVTVSS
VL: DIQMTQSPSSLSASVGDRVTITCRASQSVSSAVAWYQQKPGKAPKLLIYSASSLYSGVPSRFSGSRSGTDFTLTISSLQPEDFATYYCQQGVYLFTFGQGTKVEIK
notes: VH as the F^P VH of m1; constant part of the Fab heavy chain; the Fab construct is not described; VL as the F^P VL of m1; constant part of the Fab light chain; Parent paratope of the N-terminal diabody of m1; also called pan-FZD Ab (F^P); source: Expi293F, transient transfection, purified (rProtein A Sepharose)
Take B2: the binding result in the assay with Fc-tagged FZD4 CRD [2], in the assay with Fc-tagged FZD2 CRD [3], with Fc-tagged FZD7 CRD [4] and in the assay with Fc-tagged FZD1 CRD was “binds” in each case.

B3: FLAg 7+7 (anti-FZD7 paratope) (antibody, V domains shown)
VH: EVQLVESGGGLVQPGGSLRLSCAASGFNISSSSMHWVRQAPGKGLEWVASIYSYYGSTYYADSVKGRFTISADTSKNTAYLQMNSLRAEDTAVYYCARWYGMDYWGQGTLVTVSS
VL: DIQMTQSPSSLSASVGDRVTITCRASQSVSSAVAWYQQKPGKAPKLLIYSASSLYSGVPSRFSGSRSGTDFTLTISSLQPEDFATYYCQQPGSWYFPPITFGQGTKVEIK
As for B3, the binding result with Fc-tagged FZD7 CRD [5] is on record as “binds”.

B4: FLAg 4+4 (anti-FZD4 paratope) (antibody, V domains shown)
VH: EVQLVESGGGLVQPGGSLRLSCAASGFNSSFYFMHWVRQAPGKGLEWVATVYPYLDYTYYADSVKGRFTISADTSKNTAYLQMNSLRAEDTAVYYCARAFPGSYHPMDYWGQGTLVTVSS
VL: DIQMTQSPSSLSASVGDRVTITCRASQSVSSAVAWYQQKPGKAPKLLIYSASSLYSGVPSRFSGSRSGTDFTLTISSLQPEDFATYYCQQSSYSLITFGQGTKVEIK
Turning to B4, in the assay with Fc-tagged FZD4 CRD [6], the binding result was “binds”.

The record behind these values is paper PMC6711705, “Tailored tetravalent antibodies potently and specifically activate Wnt/Frizzled pathways in cells, organoids and mice” (eLife, 2019).
